In the supplement of paper PMC10065799, “High-throughput profiling of sequence recognition by tyrosine kinases and SH2 domains using bacterial peptide display” (eLife, 2023):

How the values were obtained:
AncSZ = test: phosphorylation enrichment, bacterial display (enrichment ratio); higher = better substrate or ligand; peptides without Tyr show the background
EPHB1 = EPHB1 (UniProt P54762); test: as above
EPHB2 = EPHB2 (UniProt P29323); test: as above
FGFR1 = FGFR1 (UniProt P11362); test: as above
Sequence of FGFR1 (P11362 whole entry, looked up): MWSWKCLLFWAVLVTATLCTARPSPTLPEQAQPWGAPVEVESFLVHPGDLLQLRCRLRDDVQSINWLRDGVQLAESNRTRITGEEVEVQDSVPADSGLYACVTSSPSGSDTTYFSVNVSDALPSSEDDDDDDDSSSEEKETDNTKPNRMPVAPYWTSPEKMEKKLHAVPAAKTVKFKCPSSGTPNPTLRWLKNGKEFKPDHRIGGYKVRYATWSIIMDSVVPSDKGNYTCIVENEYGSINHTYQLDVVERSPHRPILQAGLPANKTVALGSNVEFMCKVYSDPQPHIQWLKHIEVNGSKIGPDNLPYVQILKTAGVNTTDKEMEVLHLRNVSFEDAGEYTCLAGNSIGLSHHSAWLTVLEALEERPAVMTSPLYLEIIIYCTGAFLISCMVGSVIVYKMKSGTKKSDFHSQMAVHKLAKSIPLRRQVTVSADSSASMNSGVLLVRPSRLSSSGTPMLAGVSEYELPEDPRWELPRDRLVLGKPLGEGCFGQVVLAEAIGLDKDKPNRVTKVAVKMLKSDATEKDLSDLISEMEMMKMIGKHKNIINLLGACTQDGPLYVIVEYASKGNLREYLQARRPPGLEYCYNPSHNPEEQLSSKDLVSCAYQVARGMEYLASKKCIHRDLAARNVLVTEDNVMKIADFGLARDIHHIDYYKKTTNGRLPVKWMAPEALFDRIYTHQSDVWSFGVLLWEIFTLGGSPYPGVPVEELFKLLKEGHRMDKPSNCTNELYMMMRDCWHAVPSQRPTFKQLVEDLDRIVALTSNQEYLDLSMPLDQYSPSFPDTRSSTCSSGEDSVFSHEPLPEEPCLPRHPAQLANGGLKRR

FGFR3 = FGFR3 (UniProt P22607); test: as above
Fer (mouse) = test: as above
Fes = Fes (UniProt P07332); test: as above
Sequence of Fes (P07332 whole entry, looked up): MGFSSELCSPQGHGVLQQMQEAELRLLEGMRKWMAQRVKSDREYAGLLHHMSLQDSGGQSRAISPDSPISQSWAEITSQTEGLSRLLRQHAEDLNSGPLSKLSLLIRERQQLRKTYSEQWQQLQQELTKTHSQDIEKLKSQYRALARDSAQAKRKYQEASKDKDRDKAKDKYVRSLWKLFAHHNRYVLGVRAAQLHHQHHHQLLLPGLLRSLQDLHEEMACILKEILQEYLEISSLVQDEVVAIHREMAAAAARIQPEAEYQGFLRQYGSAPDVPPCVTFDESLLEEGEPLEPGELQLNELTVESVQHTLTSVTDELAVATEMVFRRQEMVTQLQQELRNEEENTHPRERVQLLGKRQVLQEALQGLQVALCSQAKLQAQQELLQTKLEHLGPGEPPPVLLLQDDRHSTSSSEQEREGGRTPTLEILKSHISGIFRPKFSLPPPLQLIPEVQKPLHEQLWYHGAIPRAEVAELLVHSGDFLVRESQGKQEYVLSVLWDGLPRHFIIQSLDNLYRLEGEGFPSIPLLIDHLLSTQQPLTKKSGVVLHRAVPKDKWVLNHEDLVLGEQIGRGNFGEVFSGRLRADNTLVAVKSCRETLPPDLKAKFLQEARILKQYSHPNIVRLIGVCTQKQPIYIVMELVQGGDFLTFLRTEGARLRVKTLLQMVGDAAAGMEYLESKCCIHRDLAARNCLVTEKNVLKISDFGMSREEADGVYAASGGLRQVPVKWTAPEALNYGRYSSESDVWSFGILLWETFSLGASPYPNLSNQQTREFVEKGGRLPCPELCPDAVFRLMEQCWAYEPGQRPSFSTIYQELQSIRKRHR

Fyn = Fyn (UniProt P06241); test: as above
Sequence of Fyn (P06241 whole entry, looked up): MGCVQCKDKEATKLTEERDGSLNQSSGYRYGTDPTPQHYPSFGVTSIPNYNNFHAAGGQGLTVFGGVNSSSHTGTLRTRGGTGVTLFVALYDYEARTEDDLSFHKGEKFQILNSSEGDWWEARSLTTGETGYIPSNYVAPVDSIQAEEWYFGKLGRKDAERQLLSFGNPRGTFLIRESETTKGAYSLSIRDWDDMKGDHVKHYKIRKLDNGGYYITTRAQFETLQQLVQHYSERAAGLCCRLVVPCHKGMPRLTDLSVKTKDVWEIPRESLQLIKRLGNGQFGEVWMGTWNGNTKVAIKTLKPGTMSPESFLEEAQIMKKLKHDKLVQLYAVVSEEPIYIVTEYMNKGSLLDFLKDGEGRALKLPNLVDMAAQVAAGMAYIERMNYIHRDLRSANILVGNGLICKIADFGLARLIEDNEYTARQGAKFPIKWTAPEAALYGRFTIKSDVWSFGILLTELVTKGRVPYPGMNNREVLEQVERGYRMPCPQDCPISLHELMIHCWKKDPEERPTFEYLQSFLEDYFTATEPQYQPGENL

Hck = Hck (UniProt P08631); test: as above
Sequence of Hck (P08631 whole entry, looked up): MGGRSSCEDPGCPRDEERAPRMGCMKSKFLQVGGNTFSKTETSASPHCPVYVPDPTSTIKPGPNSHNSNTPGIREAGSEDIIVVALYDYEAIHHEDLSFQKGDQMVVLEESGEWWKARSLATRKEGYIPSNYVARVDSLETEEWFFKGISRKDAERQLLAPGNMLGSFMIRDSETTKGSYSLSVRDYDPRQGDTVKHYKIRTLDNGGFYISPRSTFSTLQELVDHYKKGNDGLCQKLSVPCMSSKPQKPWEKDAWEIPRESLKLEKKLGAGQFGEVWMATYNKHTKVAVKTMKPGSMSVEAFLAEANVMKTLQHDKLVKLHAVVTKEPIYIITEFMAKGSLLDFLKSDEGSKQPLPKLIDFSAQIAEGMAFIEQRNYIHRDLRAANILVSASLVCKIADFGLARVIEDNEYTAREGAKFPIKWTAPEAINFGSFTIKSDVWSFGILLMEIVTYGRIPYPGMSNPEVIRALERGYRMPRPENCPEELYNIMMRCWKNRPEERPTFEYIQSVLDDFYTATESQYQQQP

Jak2 = Jak2 (UniProt O60674); test: as above
Sequence of Jak2 (O60674 whole entry, looked up): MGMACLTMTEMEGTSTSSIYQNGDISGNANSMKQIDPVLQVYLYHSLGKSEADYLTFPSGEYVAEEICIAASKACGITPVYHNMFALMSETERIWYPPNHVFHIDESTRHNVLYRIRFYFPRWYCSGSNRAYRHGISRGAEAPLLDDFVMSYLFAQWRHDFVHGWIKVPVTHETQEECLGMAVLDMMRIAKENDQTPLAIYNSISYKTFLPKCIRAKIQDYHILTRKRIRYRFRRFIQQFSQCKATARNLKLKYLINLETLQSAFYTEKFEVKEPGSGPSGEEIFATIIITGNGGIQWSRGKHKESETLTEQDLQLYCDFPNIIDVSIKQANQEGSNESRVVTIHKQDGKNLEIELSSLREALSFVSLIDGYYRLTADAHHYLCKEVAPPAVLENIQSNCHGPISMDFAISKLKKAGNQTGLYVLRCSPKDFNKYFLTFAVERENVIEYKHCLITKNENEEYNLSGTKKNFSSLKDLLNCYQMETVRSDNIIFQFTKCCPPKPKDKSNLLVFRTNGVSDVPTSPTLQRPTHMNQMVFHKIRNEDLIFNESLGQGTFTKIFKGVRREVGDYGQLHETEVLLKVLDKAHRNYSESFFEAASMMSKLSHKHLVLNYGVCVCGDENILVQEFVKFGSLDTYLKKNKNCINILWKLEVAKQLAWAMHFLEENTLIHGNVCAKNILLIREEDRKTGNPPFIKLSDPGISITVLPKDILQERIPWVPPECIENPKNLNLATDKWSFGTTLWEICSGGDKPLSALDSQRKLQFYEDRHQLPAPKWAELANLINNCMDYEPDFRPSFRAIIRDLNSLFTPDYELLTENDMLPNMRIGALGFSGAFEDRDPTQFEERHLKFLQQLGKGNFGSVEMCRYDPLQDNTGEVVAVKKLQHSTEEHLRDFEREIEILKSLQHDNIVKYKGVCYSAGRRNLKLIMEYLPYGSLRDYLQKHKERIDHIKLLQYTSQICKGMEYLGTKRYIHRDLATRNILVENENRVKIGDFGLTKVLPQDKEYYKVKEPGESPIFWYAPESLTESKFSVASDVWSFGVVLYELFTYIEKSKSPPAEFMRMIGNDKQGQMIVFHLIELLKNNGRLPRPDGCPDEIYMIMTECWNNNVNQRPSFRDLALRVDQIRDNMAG

MERTK = MERTK (UniProt Q12866); test: as above
c-Abl (mouse) = test: as above
c-Src = test: as above
Grb2 SH2 = Grb2 SH2 (UniProt P62993); test: SH2 binding enrichment of the phosphorylated peptide, bacterial display (enrichment ratio); higher = better substrate or ligand; peptides without Tyr show the background
Sequence of Grb2 SH2 (P62993 whole entry, looked up): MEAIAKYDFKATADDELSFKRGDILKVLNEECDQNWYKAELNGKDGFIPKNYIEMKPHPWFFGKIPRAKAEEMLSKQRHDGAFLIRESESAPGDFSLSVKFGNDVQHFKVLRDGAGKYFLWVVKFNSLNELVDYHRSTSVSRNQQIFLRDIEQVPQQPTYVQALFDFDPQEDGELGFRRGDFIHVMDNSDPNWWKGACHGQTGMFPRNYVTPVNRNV

SHP2-C SH2 = test: as above
c-Src SH2 = test: as above
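For SH2 binding enrichment of the phosphorylated peptide, bacterial display in this document: peptide library displayed on the E. coli surface as eCPX fusions, selected cells deep-sequenced, score is each peptide's frequency after selection divided by its frequency in the input.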
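For phosphorylation enrichment, bacterial display in this document: 11-residue human phosphosite peptides and single-mutation variants displayed on the E. coli surface, counted by deep sequencing, each peptide's frequency after selection divided by its frequency in the unselected input library; frequency after pTyr selection over input frequency; kinase dosed for 20-30% of maximal phosphorylation in three min.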

Sequence of EPHB1 (P54762 whole entry, looked up): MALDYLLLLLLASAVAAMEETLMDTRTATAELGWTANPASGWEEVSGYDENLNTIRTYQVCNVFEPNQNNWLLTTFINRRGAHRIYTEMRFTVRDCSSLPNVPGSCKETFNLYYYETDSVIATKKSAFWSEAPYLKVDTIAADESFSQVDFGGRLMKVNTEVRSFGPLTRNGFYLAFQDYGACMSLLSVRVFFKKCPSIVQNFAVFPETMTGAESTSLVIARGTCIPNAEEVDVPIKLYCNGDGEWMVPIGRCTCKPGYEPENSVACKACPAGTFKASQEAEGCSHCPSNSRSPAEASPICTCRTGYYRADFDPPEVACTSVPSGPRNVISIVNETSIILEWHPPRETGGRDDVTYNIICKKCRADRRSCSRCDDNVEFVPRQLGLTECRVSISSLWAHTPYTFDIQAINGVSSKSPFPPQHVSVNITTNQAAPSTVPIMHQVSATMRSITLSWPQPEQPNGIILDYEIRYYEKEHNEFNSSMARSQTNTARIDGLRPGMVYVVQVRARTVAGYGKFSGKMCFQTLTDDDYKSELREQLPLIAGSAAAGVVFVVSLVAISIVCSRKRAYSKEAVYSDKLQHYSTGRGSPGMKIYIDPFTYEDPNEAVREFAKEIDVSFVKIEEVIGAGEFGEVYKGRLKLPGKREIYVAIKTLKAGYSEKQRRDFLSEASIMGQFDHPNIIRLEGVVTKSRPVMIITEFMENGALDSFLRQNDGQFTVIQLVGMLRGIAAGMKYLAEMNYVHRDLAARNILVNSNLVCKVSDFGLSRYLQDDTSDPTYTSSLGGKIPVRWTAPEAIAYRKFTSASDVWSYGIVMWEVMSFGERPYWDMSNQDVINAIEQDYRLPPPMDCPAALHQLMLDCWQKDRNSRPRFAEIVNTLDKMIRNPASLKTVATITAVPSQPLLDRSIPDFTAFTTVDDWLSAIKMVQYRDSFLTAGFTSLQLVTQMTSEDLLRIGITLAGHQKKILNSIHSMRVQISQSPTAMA

Sequence	phosphorylation enrichment (AncSZ)	phosphorylation enrichment (EPHB1)	phosphorylation enrichment (EPHB2)	phosphorylation enrichment (FGFR1)	phosphorylation enrichment (FGFR3)	phosphorylation enrichment (Fer (mouse))	phosphorylation enrichment (Fes)	phosphorylation enrichment (Fyn)	phosphorylation enrichment (Hck)	phosphorylation enrichment (Jak2)	phosphorylation enrichment (MERTK)	phosphorylation enrichment (c-Abl (mouse))	phosphorylation enrichment (c-Src)	SH2 binding enrichment (Grb2 SH2)	SH2 binding enrichment (SHP2-C SH2)	SH2 binding enrichment (c-Src SH2)
SSVKLYRVYCD [FGB_Y266_P265L]	1.06	0.618	0.634	0.459	0.728	0.531	1.22	0.479	0.603	0.955	0.459	0.718	0.525	0.893	0.818	0.606
STSYDYCRVPM [BST2_Y8]	3.77	11.7	10.3	7.46	5.34	4.37	0.892	0.711	2.22	2.55	3.24	1.11	1.13	0.858	0.937	1.54
STTSDYQWDVS [MTDH_Y364]	1.23	0.741	0.615	0.659	0.865	0.476	1.22	0.54	0.508	1.05	0.387	0.782	0.407	0.921	0.612	0.449
SVDRDYVLKSA [HTATIP2_Y111_R106S]	0.66	0.546	0.403	0.487	0.54	0.403	0.755	0.439	0.399	0.571	0.4	0.699	0.426	0.74	0.927	0.387
SVTCTFSPALN [TP53_Y126_Y126F]	2.01	0.845	0.675	0.602	1.03	0.673	1.89	0.562	0.621	1.74	0.515	1.19	0.541	0.627	0.494	0.473
SVTCTSSPALN [TP53_Y126_Y126S]	1.3	0.626	0.675	0.476	0.863	0.538	1.34	0.562	0.526	1.18	0.436	0.856	0.47	0.767	0.603	0.482
SVTCTYSPAIN [TP53_Y126_L130I]	1.5	1	0.735	0.702	1.1	0.743	1.83	0.615	0.749	1.37	0.466	1.08	0.684	0.817	0.5	0.435
SVTCTYSPALI [TP53_Y126_N131I]	1.64	0.906	0.779	0.534	0.954	1.09	1.8	0.646	0.804	1.52	0.602	1.13	0.817	0.659	0.663	0.349
SVVAPYEPPEV [TP53_Y220_V218A]	1.34	0.629	0.617	0.528	0.753	0.578	1.48	0.67	0.624	1.1	0.629	1.08	0.672	0.903	0.59	0.762
SVVVPFEPPEV [TP53_Y220_Y220F]	1.04	0.578	0.628	0.533	0.668	0.467	1.22	0.41	0.502	1.06	0.39	0.866	0.552	0.807	0.537	0.469
SWKRRYFLLWA [APBB1IP_Y331_R335W]	0.686	0.443	0.5	0.479	0.545	0.433	0.591	0.576	0.497	0.571	0.59	0.478	0.661	0.684	0.646	0.428
SWSTSYSGFRC [NKAPL_Y91_Y96C_YF]	0.985	0.616	0.597	0.528	0.763	0.531	1.1	0.643	0.642	0.877	0.424	0.761	0.972	0.87	0.57	0.43
SYDLDYDSVQP [MYC_Y16_N11S]	2.5	1.03	1.73	0.589	0.862	0.995	1.21	0.723	0.762	1.04	0.443	0.741	0.796	0.804	0.633	1.19
TAALWYIFSHT [ENG_Y612_YF]	1.26	0.733	0.593	0.543	1.03	0.496	1.5	0.514	0.536	1.36	0.491	1.19	0.722	1.02	0.785	0.713
TARWEYMHSPS [CPOX_Y429]	0.927	0.965	0.624	0.536	0.69	0.334	2.01	0.387	0.356	1.23	1.08	0.363	1.14	1.25	0.778	0.688
TDTAAYEERVR [SPTB_Y474]	0.931	0.692	0.767	0.581	0.494	0.407	1.25	0.795	0.686	1.9	1.2	1.2	0.753	0.937	0.677	0.672
TENAGYFFRIS	1.52	0.733	0.703	0.511	0.868	0.487	1.42	0.511	0.548	1.46	0.388	0.925	0.514	0.753	0.593	0.432

Sequence	phosphorylation enrichment (AncSZ)	phosphorylation enrichment (EPHB1)	phosphorylation enrichment (EPHB2)	phosphorylation enrichment (FGFR1)	phosphorylation enrichment (FGFR3)	phosphorylation enrichment (Fer (mouse))	phosphorylation enrichment (Fes)	phosphorylation enrichment (Fyn)	phosphorylation enrichment (Hck)	phosphorylation enrichment (Jak2)	phosphorylation enrichment (MERTK)	phosphorylation enrichment (c-Abl (mouse))	phosphorylation enrichment (c-Src)	SH2 binding enrichment (Grb2 SH2)	SH2 binding enrichment (SHP2-C SH2)	SH2 binding enrichment (c-Src SH2)
TFGVVYKARNK [CDK2_Y19_YF]	0.928	0.439	0.518	0.587	0.694	0.481	0.917	0.422	0.39	0.805	0.321	0.565	0.346	0.801	0.671	0.495
TFLRTYTDAMQ [TSPAN7_Y124]	0.791	0.51	0.488	0.438	0.548	0.379	0.813	0.396	0.506	0.726	0.37	0.552	0.413	0.761	0.864	0.846
TFRPPYYHRNC [HGD_Y333]	0.721	0.506	0.474	0.497	0.486	0.375	0.878	0.562	0.524	0.686	0.498	0.599	0.559	1.38	1.86	1.18
THLAPYSDELR [APOA1_Y190]	0.722	0.51	0.582	0.46	0.594	0.442	0.968	0.51	0.481	0.688	0.467	0.521	0.434	0.723	0.909	0.437
TIQMMYGCDVG [HLA-A_Y123_I121M]	1.22	0.718	0.555	0.561	0.987	0.532	1.38	0.525	0.501	1.31	0.408	0.822	0.513	0.845	0.575	0.414
TLGPFYPSRLF [CRYAA_Y18]	0.795	0.47	0.493	0.581	0.586	0.464	0.784	0.459	0.428	0.668	0.43	0.63	0.44	1.17	1.13	0.717
TLQVMYGCDVG [HLA-B_Y123_S121V]	1.1	0.564	0.56	0.596	0.862	0.509	1.23	0.508	0.593	1.1	0.56	0.849	0.589	0.941	0.883	0.515
TNIKRYHIAKV [HARS1_Y150]	0.408	0.301	0.322	0.301	0.328	0.278	0.553	0.379	0.264	0.43	0.358	0.375	0.348	0.967	0.986	0.81
TQFWRYFAGNL [SLC25A5_Y112_L111R]	0.918	0.6	0.589	0.494	0.655	0.351	1.05	0.509	0.493	0.951	0.433	1.55	0.489	0.977	0.894	0.545
TSGVVYKARNK [CDK2_Y19_Y15S]	0.53	0.392	0.358	0.354	0.447	0.519	0.661	0.359	0.462	0.427	0.479	0.51	0.516	0.742	0.866	0.565
TSNQEYLDVSM [FGFR1_Y766_L769V]	1.15	0.866	0.681	1.24	1.05	0.561	1.06	0.504	0.56	0.958	0.441	0.684	0.415	0.811	0.696	0.567
TSYQMYDKGLV [IARS2_Y231_F227S]	0.986	0.468	0.665	0.496	0.568	0.405	0.769	0.604	1.13	0.957	0.463	0.432	0.54	0.999	0.759	0.672
TTPAVYARVAK [CTRB2_Y246]	0.49	0.594	0.505	0.436	0.436	0.383	0.583	1.28	2.77	0.464	0.529	1.04	2.23	0.897	2.3	2.12
TVSRPYSFIEF [SEC22B_Y110]	0.746	0.527	0.403	3.02	2.19	11.3	1.12	0.993	0.705	0.848	6.03	0.639	3.15	0.891	26.3	19.8
TVSTGYTQPQP [SARG_Y259_R258G]	0.675	0.378	0.374	0.523	0.629	0.513	0.64	0.442	0.47	0.508	0.371	0.511	0.479	0.633	0.68	1.53
TYEPNYGTVKQ [RAPGEF6_Y1447]	0.864	1.54	5.21	0.553	0.659	2.44	0.667	2.21	1.66	0.47	0.644	1.2	1.44	0.748	0.696	0.556
